4 molecules from patent US20190010493A1 (published 2019) can be followed below.

In assay [1] the target is T1, full-length mAKAPβ protein with an internal deletion of residues 1257 to 1886 (rat) (UniProt Q9WVC7).
T1 sequence: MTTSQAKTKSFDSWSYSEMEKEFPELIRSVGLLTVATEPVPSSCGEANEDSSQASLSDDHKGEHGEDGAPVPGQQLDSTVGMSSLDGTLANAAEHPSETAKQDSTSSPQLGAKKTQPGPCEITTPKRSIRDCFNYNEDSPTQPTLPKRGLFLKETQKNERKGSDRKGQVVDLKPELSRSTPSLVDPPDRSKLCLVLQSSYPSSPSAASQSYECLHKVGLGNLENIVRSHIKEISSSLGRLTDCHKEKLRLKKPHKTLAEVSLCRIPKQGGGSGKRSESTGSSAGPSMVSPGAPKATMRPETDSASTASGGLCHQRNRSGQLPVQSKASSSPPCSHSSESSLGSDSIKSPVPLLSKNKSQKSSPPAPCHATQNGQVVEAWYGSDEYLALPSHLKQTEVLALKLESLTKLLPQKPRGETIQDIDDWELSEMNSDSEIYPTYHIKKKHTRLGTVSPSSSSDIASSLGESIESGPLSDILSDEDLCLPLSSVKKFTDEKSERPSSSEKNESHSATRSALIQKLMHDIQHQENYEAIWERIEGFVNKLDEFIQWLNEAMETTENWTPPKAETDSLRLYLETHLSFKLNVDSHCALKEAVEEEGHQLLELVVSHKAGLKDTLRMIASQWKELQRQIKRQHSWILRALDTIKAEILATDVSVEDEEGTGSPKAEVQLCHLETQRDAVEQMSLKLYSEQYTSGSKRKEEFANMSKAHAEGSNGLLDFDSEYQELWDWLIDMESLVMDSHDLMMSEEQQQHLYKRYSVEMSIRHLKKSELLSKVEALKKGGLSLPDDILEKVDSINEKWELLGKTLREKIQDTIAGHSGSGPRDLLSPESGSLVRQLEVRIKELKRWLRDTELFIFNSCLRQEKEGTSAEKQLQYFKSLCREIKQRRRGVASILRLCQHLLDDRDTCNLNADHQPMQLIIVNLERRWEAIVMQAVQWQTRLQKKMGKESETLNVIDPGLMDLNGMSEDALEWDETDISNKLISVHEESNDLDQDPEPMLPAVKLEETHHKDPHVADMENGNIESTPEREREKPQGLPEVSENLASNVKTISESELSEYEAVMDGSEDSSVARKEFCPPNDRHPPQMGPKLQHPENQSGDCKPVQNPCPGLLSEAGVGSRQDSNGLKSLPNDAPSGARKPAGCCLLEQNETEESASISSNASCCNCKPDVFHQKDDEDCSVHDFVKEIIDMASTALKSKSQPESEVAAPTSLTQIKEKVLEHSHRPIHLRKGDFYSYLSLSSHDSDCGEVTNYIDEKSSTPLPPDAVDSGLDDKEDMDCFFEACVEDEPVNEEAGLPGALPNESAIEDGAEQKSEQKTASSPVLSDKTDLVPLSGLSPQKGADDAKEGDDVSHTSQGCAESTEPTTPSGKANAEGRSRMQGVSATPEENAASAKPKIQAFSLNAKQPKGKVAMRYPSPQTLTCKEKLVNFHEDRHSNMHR
The assay is described as follows: co-immunoprecipitation, heterologous cells.

Assay [2] has as its target T2, N-terminally truncated RSK3 mutant (HA-RSK3 DN30) (human, UniProt Q15349 31-733).
T2 construct: The range 31-733 is inferred from the label 'DN30'; not shown: hemagglutinin (HA) tag
The assay is described as follows: co-immunoprecipitation in heterologous cells. The text has this: To address this hypothesis, the inventors defined the mAKAP domains responsible for RSK3 binding. HA-tagged RSK3 was co-expressed in heterologous cells with myc-tagged mAKAPβ fragments and coimmunoprecipitated using a myc-tag antibody (FIGS. 7A and 7B of U.S. Pat. No. 9,132,174). […] As shown, the unique N-terminal domain of RSK3 bound full-length mAKAPβ (FIG. 4D of U.S. Pat. No. 9,132,174). The mAKAP RBD also bound HA-RSK3 1 to 42 (FIG. 7E of U.S. Pat. No. 9,132,174), but not to the N-terminally truncated RSK3 mutant (HA-RSK3 DN30) or the HA-tagged full-length RSK2 (FIG. 7F of U.S. Pat. No. 9,132,174).
Immunoprecipitations: HEK293 and COS-7 cells were transfected with Lipofectamine 2000 (Invitrogen) or Polyethylenimine “Max” (Polysciences). Cells (including myocytes) were lysed in buffer (20 mmol/L HEPES, pH 7.4, 150 mmol/L NaCl, 5 mmol/L EDTA, 0.5% Triton, 50 mmol/L NaF, 1 mmol/L sodium orthovanadate, 1 mmol/L DTT, and protease inhibitors). After centrifugation at 10,000×g for 10 minutes at 4° C., the clarified extracts were used for immunoprecipitation using appropriate antibodies (10 μg purified antibody or 1-5 μL whole serum) and 20 μL protein G sepharose (Millipore, Fastflow) for 3 hours to overnight at 4° C. The beads were washed 3-5 times with lysis buffer, and the immunoprecipitated proteins were eluted with 1× Laemmli buffer for western blotting. […]

The target in assay [3] is T3, bacterially expressed His-tagged mAKAP 1286 to 1833 (rat, UniProt Q9WVC7 1286-1833).
T3 construct: Covalently immobilised by amine coupling on a CM5 chip, 200 resonance units; not shown: His tag (pET30-based vector)
T3 sequence: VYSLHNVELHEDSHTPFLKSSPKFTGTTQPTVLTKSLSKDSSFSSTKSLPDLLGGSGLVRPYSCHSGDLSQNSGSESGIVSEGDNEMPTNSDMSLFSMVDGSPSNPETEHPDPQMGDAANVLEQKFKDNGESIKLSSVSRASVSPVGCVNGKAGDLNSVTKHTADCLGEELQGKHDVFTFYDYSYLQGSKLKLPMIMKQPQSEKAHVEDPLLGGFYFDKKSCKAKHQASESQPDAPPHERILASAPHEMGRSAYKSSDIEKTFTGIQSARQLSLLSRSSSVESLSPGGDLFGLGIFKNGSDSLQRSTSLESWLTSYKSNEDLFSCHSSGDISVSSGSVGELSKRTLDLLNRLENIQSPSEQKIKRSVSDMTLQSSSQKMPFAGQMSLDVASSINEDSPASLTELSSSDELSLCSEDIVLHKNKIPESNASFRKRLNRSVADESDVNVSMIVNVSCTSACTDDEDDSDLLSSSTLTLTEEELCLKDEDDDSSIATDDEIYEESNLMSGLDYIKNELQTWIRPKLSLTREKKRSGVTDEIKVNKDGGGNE
The assay can be described thus: SPR (BIAcore T100), His-mAKAP 1286-1833 immobilised, phospho-His-RSK3 analyte. Here is the method: The inventors next tested whether mAKAP-RSK3 binding is direct (FIG. 7G of U.S. Pat. No. 9,132,174). […] The binding was direct and of high affinity (nanomolar KD). The inventors previously reported that once activated, RSK3 binds mAKAPα less well in cells (Michele 2005).
Surface Plasmon Resonance: SPR analysis was performed using a BIAcore T100. […] (Biacore amine coupling kit) to the surface of a sensor chip (BIAcore type CM5). His-RSK3 analytes (6.25-200 nmol/L) in HBS buffer (10 mmol/L Hepes, pH 7.4, 150 mmol/L NaCl, and 0.005% Surfactant P20) were injected at a flow rate of 30 μL/min for 5 minutes, followed by buffer alone for another 5 minutes. Sensorgrams were processed by BIAcore T100 evaluation software.
In general terms: SPR reads the build-up and loss of mass on a sensor chip optically.

A value given as a limit tells only on which side of the number the result lay.

Take “HA-tagged RSK3 (type 3 p90 ribosomal S6 kinase) (from UniProt Q15349 1-733) (enzyme)”: the reduction of binding against full-length mAKAPβ in assay [1] was > 85%.

B1: mAKAP RSK binding domain (RBD), mAKAP residues 1694 to 1833 (other, not shown: small tags and cut ends)
chain: ELSLCSEDIVLHKNKIPESNASFRKRLNRSVADESDVNVSMIVNVSCTSACTDDEDDSDLLSSSTLTLTEEELCLKDEDDDSSIATDDEIYEESNLMSGLDYIKNELQTWIRPKLSLTREKKRSGVTDEIKVNKDGGGNE
notes: also called mAKAP RBD
Consider B1, for which, in assay [2], the binding result is recorded as “no binding”.

B2: His-RSK3 phosphorylated by ERK (enzyme)
chain: MDLSMKKFAVRRFFSVYLRRKSRSKSSSLSRLEEEGVVKEIDISHHVKEGFEKADPSQFELLKVLGQGSYGKVFLVRKVKGSDAGQLYAMKVLKKATLKVRDRVRSKMERDILAEVNHPFIVKLHYAFQTEGKLYLILDFLRGGDLFTRLSKEVMFTEEDVKFYLAELALALDHLHSLGIIYRDLKPENILLDEEGHIKITDFGLSKEAIDHDKRAYSFCGTIEYMAPEVVNRRGHTQSADWWSFGVLMFEMLTGSLPFQGKDRKETMALILKAKLGMPQFLSGEAQSLLRALFKRNPCNRLGAGIDGVEEIKRHPFFVTIDWNTLYRKEIKPPFKPAVGRPEDTFHFDPEFTARTPTDSPGVPPSANAHHLFRGFSFVASSLIQEPSQQDLHKVPVHPIVQQLHGNNIHFTDGYEIKEDIGVGSYSVCKRCVHKATDTEYAVKIIDKSKRDPSEEIEILLRYGQHPNIITLKDVYDDGKFVYLVMELMRGGELLDRILRQRYFSEREASDVLCTITKTMDYLHSQGVVHRDLKPSNILYRDESGSPESIRVCDFGFAKQLRAGNGLLMTPCYTANFVAPEVLKRQGYDAACDIWSLGILLYTMLAGFTPFANGPDDTPEEILARIGSGKYALSGGNWDSISDAAKDVVSKMLHVDPHQRLTAMQVLKHPWVVNREYLSPNQLSRQDVHLVKGAMAATYFALNRTPQAPRLEPVLSSNLAQRRGMKRLTSTRL
modifications: phosphorylated in vitro with ERK2; sites on this protein not stated here (S360 is named as the ERK site of HA-RSK3 in paragraph 123)
notes: also called Phospho-His-RSK3 (ERK2); not shown: His tag
Take B2: the “fold decrease of binding affinity against unphosphorylated RSK3” value in assay [3] came out at 5 fold.

B3: His-RSK3 phosphorylated by both ERK and PDK1 (enzyme)
chain: B2 chain
modifications: phosphorylated in vitro with ERK2 and PDK1; sites on this protein not stated here (S360 ERK site and S218 PDK1 site are named for HA-RSK3 in paragraph 123)
notes: also called Phospho-His-RSK3 (ERK2 and PDK1); not shown: His tag
As to B3, the “fold decrease of binding affinity against unphosphorylated RSK3” value in assay [3] is 8 fold.
